{"source": "paper PMC4419512", "key": {"[1]": {"target": "HIV-1 RF envelope glycoprotein (Env) on virus (HIV-1 (RF)) (UniProt P04579)"}, "[2]": {"target": "HIV-1 subtype A Q168.a2 envelope (Env) on pseudovirus (HIV-1 subtype A)"}, "[3]": {"target": "HIV-1 subtype A Q23.7 envelope (Env) on pseudovirus (HIV-1 subtype A)"}, "[4]": {"target": "HIV-1 subtype B CAAN5342.A2 envelope (Env) on pseudovirus (HIV-1 subtype B)"}, "[5]": {"target": "HIV-1 subtype B JR-FL envelope (Env) on pseudovirus (HIV-1 subtype B) (UniProt Q75760)"}, "[6]": {"target": "HIV-1 subtype B PVO.4 envelope (Env) on pseudovirus (HIV-1 subtype B)"}, "[7]": {"target": "HIV-1 subtype B QH0692.42 envelope (Env) on pseudovirus (HIV-1 subtype B)"}, "[8]": {"target": "HIV-1 subtype C CAP206.8 envelope (Env) on pseudovirus (HIV-1 subtype C)"}, "[9]": {"target": "HIV-1 subtype C COT6.15 envelope (Env) on pseudovirus (HIV-1 subtype C)"}, "[10]": {"target": "HIV-1 subtype C DU151.2 envelope (Env) on pseudovirus (HIV-1 subtype C)"}, "[11]": {"target": "HIV-1 subtype C Du156.12 envelope (Env) on pseudovirus (HIV-1 subtype C)"}, "[12]": {"target": "HIV-1 subtype C Du179.14 envelope (Env) on pseudovirus (HIV-1 subtype C)"}, "[13]": {"target": "monomeric, glycosylated, baculovirus-produced HIV-1 IIIB gp120 (HIV-1 (IIIB))", "test": "ITC; lectin (180 μM) in the syringe, gp120 (2.5 μM) in the cell; 55 injections of 5 μl, 600 s spacing, 300 rpm, 30°C; VP-ITC"}}, "data": [{"substance": "4mGRFT, tandem repeat of four mGRFT (1GS-S) domains joined by Gly-Thr-Gly linkers (designed binder)", "values": [{"measurement": "Anti-HIV EC50: concentration at which 50% of CEM-SS cells are protected from the cytopathic effects of HIV-1RF infection (XTT assay)", "setting": "[1]", "value": 0.0012, "unit": "nM"}, {"measurement": "IC50 of neutralisation, single cycle Tzm-bl pseudovirus assay", "setting": "[2]", "value": 0.273, "unit": "nM"}, {"measurement": "IC50 of neutralisation, single cycle Tzm-bl pseudovirus assay", "setting": "[3]", "value": 0.276, "unit": "nM"}, {"measurement": "IC50 of neutralisation, single cycle Tzm-bl pseudovirus assay", "setting": "[4]", "value": 0.232, "unit": "nM"}, {"measurement": "IC50 of neutralisation, single cycle Tzm-bl pseudovirus assay", "setting": "[5]", "value": 0.287, "unit": "nM"}, {"measurement": "IC50 of neutralisation, single cycle Tzm-bl pseudovirus assay", "setting": "[6]", "value": 0.185, "unit": "nM"}, {"measurement": "IC50 of neutralisation, single cycle Tzm-bl pseudovirus assay", "setting": "[7]", "value": 0.17, "unit": "nM"}, {"measurement": "IC50 of neutralisation, single cycle Tzm-bl pseudovirus assay", "setting": "[8]", "value": 0.164, "unit": "nM"}, {"measurement": "IC50 of neutralisation, single cycle Tzm-bl pseudovirus assay", "setting": "[9]", "value": 0.273, "unit": "nM"}, {"measurement": "IC50 of neutralisation, single cycle Tzm-bl pseudovirus assay", "setting": "[10]", "value": 0.3, "unit": "nM"}, {"measurement": "IC50 of neutralisation, single cycle Tzm-bl pseudovirus assay", "setting": "[11]", "value": 0.0887, "unit": "nM"}, {"measurement": "IC50 of neutralisation, single cycle Tzm-bl pseudovirus assay", "setting": "[12]", "value": 0.0934, "unit": "nM"}]}, {"substance": "griffithsin (GRFT), native domain-swapped homodimer (from UniProt P84801 1-121) (natural protein)", "values": [{"measurement": "Anti-HIV EC50: concentration at which 50% of CEM-SS cells are protected from the cytopathic effects of HIV-1RF infection (XTT assay)", "setting": "[1]", "value": 0.0138, "unit": "nM"}, {"measurement": "IC50 of neutralisation, single cycle Tzm-bl pseudovirus assay", "setting": "[2]", "value": 3.8, "unit": "nM"}, {"measurement": "IC50 of neutralisation, single cycle Tzm-bl pseudovirus assay", "setting": "[3]", "value": 1.19, "unit": "nM"}, {"measurement": "IC50 of neutralisation, single cycle Tzm-bl pseudovirus assay", "setting": "[4]", "value": 7.34, "unit": "nM"}, {"measurement": "IC50 of neutralisation, single cycle Tzm-bl pseudovirus assay", "setting": "[5]", "value": 0.922, "unit": "nM"}, {"measurement": "IC50 of neutralisation, single cycle Tzm-bl pseudovirus assay", "setting": "[6]", "value": 0.037, "unit": "nM"}, {"measurement": "IC50 of neutralisation, single cycle Tzm-bl pseudovirus assay", "setting": "[7]", "value": 0.0473, "unit": "nM"}, {"measurement": "IC50 of neutralisation, single cycle Tzm-bl pseudovirus assay", "setting": "[8]", "value": 2.14, "unit": "nM"}, {"measurement": "IC50 of neutralisation, single cycle Tzm-bl pseudovirus assay", "setting": "[9]", "value": 0.734, "unit": "nM"}, {"measurement": "IC50 of neutralisation, single cycle Tzm-bl pseudovirus assay", "setting": "[10]", "value": 1.49, "unit": "nM"}, {"measurement": "IC50 of neutralisation, single cycle Tzm-bl pseudovirus assay", "setting": "[11]", "value": 0.0324, "unit": "nM"}, {"measurement": "IC50 of neutralisation, single cycle Tzm-bl pseudovirus assay", "setting": "[12]", "value": 0.606, "unit": "nM"}, {"measurement": "Kd", "setting": "[13]", "value": 8, "unit": "nM"}, {"measurement": "dH", "setting": "[13]", "value": -30.4, "unit": "kcal/mol"}]}, {"substance": "monomeric griffithsin mGRFT (1GS-S) (from UniProt P84801 16-121) (natural protein)", "values": [{"measurement": "Anti-HIV EC50: concentration at which 50% of CEM-SS cells are protected from the cytopathic effects of HIV-1RF infection (XTT assay)", "setting": "[1]", "value": 119, "unit": "nM"}, {"measurement": "Kd", "setting": "[13]", "value": 112, "unit": "nM"}, {"measurement": "dH", "setting": "[13]", "value": -35.5, "unit": "kcal/mol"}]}, {"substance": "2mGRFT3, tandem repeat of two mGRFT (1GS-S) domains joined by a (Gly-Thr-Gly)3 linker (designed binder)", "values": [{"measurement": "Anti-HIV EC50: concentration at which 50% of CEM-SS cells are protected from the cytopathic effects of HIV-1RF infection (XTT assay)", "setting": "[1]", "value": 0.0026, "unit": "nM"}, {"measurement": "IC50 of neutralisation, single cycle Tzm-bl pseudovirus assay", "setting": "[2]", "value": 5.28, "unit": "nM"}, {"measurement": "IC50 of neutralisation, single cycle Tzm-bl pseudovirus assay", "setting": "[3]", "value": 7.16, "unit": "nM"}, {"measurement": "IC50 of neutralisation, single cycle Tzm-bl pseudovirus assay", "setting": "[4]", "value": 16.9, "unit": "nM"}, {"measurement": "IC50 of neutralisation, single cycle Tzm-bl pseudovirus assay", "setting": "[5]", "value": 5.77, "unit": "nM"}, {"measurement": "IC50 of neutralisation, single cycle Tzm-bl pseudovirus assay", "setting": "[6]", "value": 0.558, "unit": "nM"}, {"measurement": "IC50 of neutralisation, single cycle Tzm-bl pseudovirus assay", "setting": "[7]", "value": 0.513, "unit": "nM"}, {"measurement": "IC50 of neutralisation, single cycle Tzm-bl pseudovirus assay", "setting": "[8]", "value": 0.696, "unit": "nM"}, {"measurement": "IC50 of neutralisation, single cycle Tzm-bl pseudovirus assay", "setting": "[9]", "value": 2.54, "unit": "nM"}, {"measurement": "IC50 of neutralisation, single cycle Tzm-bl pseudovirus assay", "setting": "[10]", "value": 1.7, "unit": "nM"}, {"measurement": "IC50 of neutralisation, single cycle Tzm-bl pseudovirus assay", "setting": "[11]", "value": 0.0616, "unit": "nM"}, {"measurement": "IC50 of neutralisation, single cycle Tzm-bl pseudovirus assay", "setting": "[12]", "value": 0.144, "unit": "nM"}, {"measurement": "Kd", "setting": "[13]", "value": 3, "unit": "nM"}, {"measurement": "dH", "setting": "[13]", "value": -47.2, "unit": "kcal/mol"}]}, {"substance": "2mGRFT, tandem repeat of two mGRFT (1GS-S) domains joined by a Gly-Thr-Gly linker (designed binder)", "values": [{"measurement": "Anti-HIV EC50: concentration at which 50% of CEM-SS cells are protected from the cytopathic effects of HIV-1RF infection (XTT assay)", "setting": "[1]", "value": 0.0027, "unit": "nM"}, {"measurement": "IC50 of neutralisation, single cycle Tzm-bl pseudovirus assay", "setting": "[2]", "value": 1.55, "unit": "nM"}, {"measurement": "IC50 of neutralisation, single cycle Tzm-bl pseudovirus assay", "setting": "[3]", "value": 7.26, "unit": "nM"}, {"measurement": "IC50 of neutralisation, single cycle Tzm-bl pseudovirus assay", "setting": "[4]", "value": 5.27, "unit": "nM"}, {"measurement": "IC50 of neutralisation, single cycle Tzm-bl pseudovirus assay", "setting": "[5]", "value": 2.09, "unit": "nM"}, {"measurement": "IC50 of neutralisation, single cycle Tzm-bl pseudovirus assay", "setting": "[6]", "value": 0.301, "unit": "nM"}, {"measurement": "IC50 of neutralisation, single cycle Tzm-bl pseudovirus assay", "setting": "[7]", "value": 0.202, "unit": "nM"}, {"measurement": "IC50 of neutralisation, single cycle Tzm-bl pseudovirus assay", "setting": "[8]", "value": 0.178, "unit": "nM"}, {"measurement": "IC50 of neutralisation, single cycle Tzm-bl pseudovirus assay", "setting": "[9]", "value": 1.46, "unit": "nM"}, {"measurement": "IC50 of neutralisation, single cycle Tzm-bl pseudovirus assay", "setting": "[10]", "value": 0.694, "unit": "nM"}, {"measurement": "IC50 of neutralisation, single cycle Tzm-bl pseudovirus assay", "setting": "[11]", "value": 0.0182, "unit": "nM"}, {"measurement": "IC50 of neutralisation, single cycle Tzm-bl pseudovirus assay", "setting": "[12]", "value": 0.158, "unit": "nM"}, {"measurement": "Kd", "setting": "[13]", "value": 5, "unit": "nM"}, {"measurement": "dH", "setting": "[13]", "value": -69.6, "unit": "kcal/mol"}]}, {"substance": "3mGRFT, tandem repeat of three mGRFT (1GS-S) domains joined by Gly-Thr-Gly linkers (designed binder)", "values": [{"measurement": "Anti-HIV EC50: concentration at which 50% of CEM-SS cells are protected from the cytopathic effects of HIV-1RF infection (XTT assay)", "setting": "[1]", "value": 0.001, "unit": "nM"}, {"measurement": "IC50 of neutralisation, single cycle Tzm-bl pseudovirus assay", "setting": "[2]", "value": 0.331, "unit": "nM"}, {"measurement": "IC50 of neutralisation, single cycle Tzm-bl pseudovirus assay", "setting": "[3]", "value": 0.432, "unit": "nM"}, {"measurement": "IC50 of neutralisation, single cycle Tzm-bl pseudovirus assay", "setting": "[4]", "value": 0.326, "unit": "nM"}, {"measurement": "IC50 of neutralisation, single cycle Tzm-bl pseudovirus assay", "setting": "[5]", "value": 0.325, "unit": "nM"}, {"measurement": "IC50 of neutralisation, single cycle Tzm-bl pseudovirus assay", "setting": "[6]", "value": 0.27, "unit": "nM"}, {"measurement": "IC50 of neutralisation, single cycle Tzm-bl pseudovirus assay", "setting": "[7]", "value": 0.223, "unit": "nM"}, {"measurement": "IC50 of neutralisation, single cycle Tzm-bl pseudovirus assay", "setting": "[8]", "value": 0.181, "unit": "nM"}, {"measurement": "IC50 of neutralisation, single cycle Tzm-bl pseudovirus assay", "setting": "[9]", "value": 0.412, "unit": "nM"}, {"measurement": "IC50 of neutralisation, single cycle Tzm-bl pseudovirus assay", "setting": "[10]", "value": 0.308, "unit": "nM"}, {"measurement": "IC50 of neutralisation, single cycle Tzm-bl pseudovirus assay", "setting": "[11]", "value": 0.0794, "unit": "nM"}, {"measurement": "IC50 of neutralisation, single cycle Tzm-bl pseudovirus assay", "setting": "[12]", "value": 0.124, "unit": "nM"}, {"measurement": "Kd", "setting": "[13]", "value": 3, "unit": "nM"}, {"measurement": "dH", "setting": "[13]", "value": -74.4, "unit": "kcal/mol"}]}]}
